Measurements taken from publication PMC9284671 (Structure (London, England : 1993), 2022).

Key:
Assay in all cases: ELISA
[1] = target: MERS-CoV S2P (pre-fusion-stabilized soluble spike) (MERS-CoV EMC/2012 (GenBank AFS88936), UniProt K0BRG7, stabilised)
[2] = target: RaTG13 S2P (pre-fusion-stabilized soluble spike) (Bat coronavirus RaTG13 (GenBank …, UniProt A0ABF7PLN6, stabilised))
[3] = target: WIV1 S2P (pre-fusion-stabilized soluble spike) (Bat SARS-like coronavirus WIV1, UniProt U5WI05, stabilised)
[4] = target: SHC014 S2P (pre-fusion-stabilized soluble spike) (Bat SARS-like coronavirus RsSHC014, UniProt U5WLK5, stabilised)
[5] = target: SARS-CoV S2P (pre-fusion-stabilized soluble spike) (SARS-CoV Urbani, UniProt P59594, stabilised)

Measured: binding result

B1: WS6 (monoclonal antibody, IgG) (antibody, V domains shown)
VH: EVQFQQSGTVLARPGASVKMSCKASGYTFTNYWIHWVKQRPGQGLEYIGGTYPGNGDTTYNQKFKGKAKVTAVTPTSTAYMDLSSLTNEDSAVYYCTRTGSYFDYWGQGTTLTVSS
VL: QIVLTQSPAIMSASPGEKVTISCSATSSVSYIYWYQQRPGSSPKPWIYRTSNLASGVPVRFSGSGSGTSYSLTISNMEAEDAATYYCQQYQSYPPTFGAGTKLELK
binds: all assays above
